Measured values: PMC10442075

Legend:
[1] = biological target: catalytic subunit of mouse PKA (mouse) (UniProt P05132)
[2] = biological target: catalytic subunit of mouse PKA (mouse) (UniProt P05132); remark: listed apart in the source

Chain of unphosphorylated GSK3β (Glycogen Synthase Kinase 3β) (P49841 whole entry): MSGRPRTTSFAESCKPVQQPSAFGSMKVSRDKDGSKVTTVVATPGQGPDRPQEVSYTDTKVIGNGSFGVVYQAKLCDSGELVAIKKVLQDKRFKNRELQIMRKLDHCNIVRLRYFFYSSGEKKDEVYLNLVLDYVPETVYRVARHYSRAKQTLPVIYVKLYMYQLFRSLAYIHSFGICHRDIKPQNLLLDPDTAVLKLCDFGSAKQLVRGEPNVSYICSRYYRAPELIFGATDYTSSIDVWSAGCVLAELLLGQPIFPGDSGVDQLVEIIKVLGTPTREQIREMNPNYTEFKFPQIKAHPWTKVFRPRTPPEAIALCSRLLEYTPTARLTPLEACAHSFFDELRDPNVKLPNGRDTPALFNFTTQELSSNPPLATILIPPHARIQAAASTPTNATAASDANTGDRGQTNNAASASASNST

- fold increase in KM for PKA phosphorylation of GSK3β at Ser9 on addition of the Axin (381-407) peptide [1]: 7 fold
- fold increase in KM for PKA phosphorylation of GSK3β at Ser9 (20 nM PKA) on addition of 500 nM full-length Axin [2]: 4 fold
Substance: unphosphorylated GSK3β (Glycogen Synthase Kinase 3β) (from UniProt P49841 1-420) (enzyme)
